{
  "source": "patent US20210395344A1",
  "about": "(TWIST BIOSCIENCE, published 2021)",
  "binders": {"B1": {"name": "SARS-CoV-2 variant 1-41 (antibody, V domains shown)", "VH": "EVQLLESGGGLVQPGGSLRLSCAASGFTFSSYDMSWVRQAPGKGLEWVSVISGSGGSTYYADSVKGRFTISRDNSKNTLYLQMNSLRAEDTAVYYCAKGPLVGWYFDLWGQGTLVTVSS", "VL": "QSALTQPASVSGSPGQSITISCTGTSSDIGSYNLVSWYQQHPGKAPKLMIYEGTKRPSGVSNRFSGSKSGNTASLTISGLQAEDEADYYCCSYAGSRTYVFGGGTKLTVL"}, "B2": {"name": "SARS-CoV-2 variant 1-2 (antibody, V domains shown)", "VH": "EVQLLESGGGLVQPGGSLRLSCAASGFTFSSQAMSWVRQAPGKGLEWVSAISGSGGGTYYADSVKGRFTISRDNSKNTLYLQMNSLRAEDTAVYYCAKDRRFGEFDPWGQGTLVTVSS", "VL": "QSALTQPASVSGSPGQSITISCTGTSSGVGSYNLVSWYQQHPGKAPKLMIYEGIKRPSGVSNRFSGSKSGNTASLTISGLQAEDEADYYCCSYAGSSSFVVFGGGTKLTVL"}, "B3": {"name": "SARS-CoV-2 variant 1-30 (antibody, V domains shown)", "VH": "EVQLLESGGGLVQPGGSLRLSCAASGFTFSSYAMTWVRQAPGKGLEWVSAISGSGGSTFYADSVKGRFTISRDNSKNTLYLQMNSLRAEDTAVYYCTRPPYGDYGDYWGQGTLVTVSS", "VL": "B2 VL with S27R, G28D, I54T, S97R, S98T, F99P"}, "B4": {"name": "SARS-CoV-2 variant 1-3 (antibody, V domains shown)", "VH": "B2 VH", "VL": "B2 VL with T25I, G28D, I54T"}, "B5": {"name": "SARS-CoV-2 variant 1-31 (antibody, V domains shown)", "VH": "B3 VH with T35N", "VL": "B2 VL with G28D, S31K, I54S, K55Q, S97R, S98T, F99P"}, "B6": {"name": "SARS-CoV-2 variant 1-4 (antibody, V domains shown)", "VH": "B2 VH", "VL": "B2 VL with G28D, S31T, I54S, K55Q"}, "B7": {"name": "SARS-CoV-2 variant 1-5 (antibody, V domains shown)", "VH": "B2 VH", "VL": "B2 VL with G53A, I54S, S97Y, S98T, V100A"}, "B8": {"name": "SARS-CoV-2 variant 1-49 (antibody, V domains shown)", "VH": "EVQLLESGGGLVQPGGSLRLSCAASGFTFSSYAMYWVRQAPGKGLEWVSAISGSAGSTYYADSVKGRFTISRDNSKNTLYLQMNSLRAEDTAVYYCARDTNDFWGQGTLVTVSS", "VL": "B1 VL"}, "B9": {"name": "SARS-CoV-2 variant 1-45 (antibody, V domains shown)", "VH": "EVQLLESGGGLVQPGGSLRLSCAASGFTFSSYAMSWVRQAPGKGLEWVSIISGSAGSTYYADSVKGRFTISRDNSKNTLYLQMNSLRAEDTAVYYCARDGYKYCLWGQGTLVTVSS", "VL": "B1 VL"}, "B10": {"name": "SARS-CoV-2 variant 1-48 (antibody, V domains shown)", "VH": "EVQLLESGGGLVQPGGSLRLSCAASGFTFSSHAMYWVRQAPGKGLEWVSAISGSAGSTYYADSVKGRFTISRDNSKNTLYLQMNSLRAEDTAVYYCAHDTKDFWSGYCIFDPWGQGTLVTVSS", "VL": "B1 VL"}, "B11": {"name": "SARS-CoV-2 variant 1-50 (antibody, V domains shown)", "VH": "B8 VH with A33D, Y35S, A55G, S57T, D99G, T100P, N101L", "VL": "B1 VL"}, "B12": {"name": "SARS-CoV-2 variant 1-39 (antibody, V domains shown)", "VH": "B3 VH with T35Y, S49T, D103Y", "VL": "B1 VL"}, "B13": {"name": "SARS-CoV-2 variant 1-46 (antibody, V domains shown)", "VH": "B10 VH with S30T, H32Y, Y35S, A55G, H98N, K101S, W104C, S105F, C108W", "VL": "B1 VL"}, "B14": {"name": "SARS-CoV-2 variant 1-43 (antibody, V domains shown)", "VH": "B2 VH with S49T, R100T, R101I, D106Y", "VL": "B1 VL"}, "B15": {"name": "SARS-CoV-2 variant 1-35 (antibody, V domains shown)", "VH": "EVQLLESGGGLVQPGGSLRLSCAASGFTFSNYAMSWVRQAPGKGLEWVSDISGSGGSTYYADSVKGRFTISRDNSKNTLYLQMNSLRAEDTAVYYCVKGTIPIFGVIRSAFDYWGQGTLVTVSS", "VL": "B2 VL with G28D, N33S, I54T, S97Y, F99Y"}, "B16": {"name": "SARS-CoV-2 variant 1-44 (antibody, V domains shown)", "VH": "B2 VH with S49T, R101K", "VL": "B1 VL"}, "B17": {"name": "SARS-CoV-2 variant 1-20 (antibody, V domains shown)", "VH": "EVQLLESGGGLVQPGGSLRLSCAASGITFSSYAMSWVRQAPGKGLEWVSGISGSGGSTYYADSVKGRFTISRDNSKNTLYLQMNSLRAEDTAVYYCANHGSGTIFGVVIAKYYFDYWGQGTLVTVSS", "VL": "B2 VL with G28D, S31H, I54T"}},
  "note": "Positions count from the first letter of the chain named.",
  "data": [
    {"target": "T1, SARS-CoV-2 S1 (subunit 1) protein (SARS-CoV-2, UniProt P0DTC2 16-685)", "T1 construct": "also called biotinylated SARS-CoV-2 S1", "assay": "phage ELISA", "units": {"screening ELISA (Avg), fold over background": "fold over background"}, "values": [
      {"binder": "B1", "screening ELISA (Avg), fold over background": 18.1},
      {"binder": "B2", "screening ELISA (Avg), fold over background": 24.2},
      {"binder": "B3", "screening ELISA (Avg), fold over background": 29.5},
      {"binder": "B4", "screening ELISA (Avg), fold over background": 23.9},
      {"binder": "B5", "screening ELISA (Avg), fold over background": 20.7},
      {"binder": "B6", "screening ELISA (Avg), fold over background": 20.6},
      {"binder": "B7", "screening ELISA (Avg), fold over background": 20.6}
    ]},
    {"target": "T2, COVID S1 RBM Fc fusion (Antigen 2) (SARS-CoV-2, UniProt P0DTC2 437-508)", "T2 construct": "domain: RBM", "assay": "phage ELISA", "units": {"specificity ELISA, fold over background": "fold over background", "specificity ELISA, percent binding relative to Acro S1": "%"}, "values": [
      {"binder": "B1", "specificity ELISA, fold over background": 1.2, "specificity ELISA, percent binding relative to Acro S1": 26.3},
      {"binder": "B8", "specificity ELISA, fold over background": 0.8, "specificity ELISA, percent binding relative to Acro S1": 78.8},
      {"binder": "B9", "specificity ELISA, fold over background": 1, "specificity ELISA, percent binding relative to Acro S1": 8.3},
      {"binder": "B10", "specificity ELISA, fold over background": 0.8, "specificity ELISA, percent binding relative to Acro S1": 30.3},
      {"binder": "B11", "specificity ELISA, fold over background": 0.8, "specificity ELISA, percent binding relative to Acro S1": 5.9},
      {"binder": "B12", "specificity ELISA, fold over background": 1.3, "specificity ELISA, percent binding relative to Acro S1": 6.7},
      {"binder": "B13", "specificity ELISA, fold over background": 0.9, "specificity ELISA, percent binding relative to Acro S1": 19.8},
      {"binder": "B2", "specificity ELISA, fold over background": 1.7, "specificity ELISA, percent binding relative to Acro S1": 93.5},
      {"binder": "B3", "specificity ELISA, fold over background": 1.4, "specificity ELISA, percent binding relative to Acro S1": 8.5},
      {"binder": "B14", "specificity ELISA, fold over background": 1, "specificity ELISA, percent binding relative to Acro S1": 14.5},
      {"binder": "B15", "specificity ELISA, fold over background": 1.6, "specificity ELISA, percent binding relative to Acro S1": 7.3},
      {"binder": "B16", "specificity ELISA, fold over background": 0.8, "specificity ELISA, percent binding relative to Acro S1": 7.6},
      {"binder": "B4", "specificity ELISA, fold over background": 1.5, "specificity ELISA, percent binding relative to Acro S1": 91.9},
      {"binder": "B17", "specificity ELISA, fold over background": 0.8, "specificity ELISA, percent binding relative to Acro S1": 14.5},
      {"binder": "B5", "specificity ELISA, fold over background": 1.2, "specificity ELISA, percent binding relative to Acro S1": 3.8},
      {"binder": "B6", "specificity ELISA, fold over background": 1.1, "specificity ELISA, percent binding relative to Acro S1": 105},
      {"binder": "B7", "specificity ELISA, fold over background": 1.4, "specificity ELISA, percent binding relative to Acro S1": 92}
    ]},
    {"target": "S1-Fc (SARS-CoV-2, UniProt P0DTC2 16-685)", "assay": "phage ELISA", "units": {"specificity ELISA, fold over background": "fold over background", "specificity ELISA, percent binding relative to Acro S1": "%"}, "values": [
      {"binder": "B2", "specificity ELISA, fold over background": 1.7, "specificity ELISA, percent binding relative to Acro S1": 95.4},
      {"binder": "B3", "specificity ELISA, fold over background": 5.6, "specificity ELISA, percent binding relative to Acro S1": 33.3},
      {"binder": "B4", "specificity ELISA, fold over background": 1.5, "specificity ELISA, percent binding relative to Acro S1": 91.2},
      {"binder": "B5", "specificity ELISA, fold over background": 15.7, "specificity ELISA, percent binding relative to Acro S1": 51.6},
      {"binder": "B6", "specificity ELISA, fold over background": 0.9, "specificity ELISA, percent binding relative to Acro S1": 90.8},
      {"binder": "B7", "specificity ELISA, fold over background": 1.2, "specificity ELISA, percent binding relative to Acro S1": 82.9}
    ]}
  ]
}
